The values below are quoted from earlier work in article PMC3153048.

Data set [1] deals with ExsE (Pseudomonas aeruginosa) (UniProt Q9I322).
Data set [2] deals with ExsD (Pseudomonas aeruginosa) (UniProt Q9I321).
Sequence of UniProt Q9I321 (Q9I321 whole entry): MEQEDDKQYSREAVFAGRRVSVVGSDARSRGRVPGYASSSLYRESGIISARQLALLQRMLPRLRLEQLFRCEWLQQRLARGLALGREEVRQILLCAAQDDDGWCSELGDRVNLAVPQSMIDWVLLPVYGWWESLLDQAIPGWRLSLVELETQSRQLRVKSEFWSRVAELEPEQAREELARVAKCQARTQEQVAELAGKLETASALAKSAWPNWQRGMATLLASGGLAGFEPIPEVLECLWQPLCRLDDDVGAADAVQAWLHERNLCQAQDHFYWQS

Sequence of UniProt Q9I322 (Q9I322 whole entry): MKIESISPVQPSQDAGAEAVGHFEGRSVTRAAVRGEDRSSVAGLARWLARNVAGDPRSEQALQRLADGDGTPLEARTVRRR

Take ExsC (from UniProt P26995): the values for the Kd in data set [1] and in data set [2] were 1 nM and 18 nM, respectively.

For orientation: Kd means the equilibrium constant for the complex coming apart.
